From paper PMC12102759 (2025)

B1: AMOTL2 peptide 64-79 (Angiomotin-like protein 2), 16-mer library wild type / TNKS ANK (TNKS 12 ANK repeats, residues 174-649) (parent complex)
chain 1: QVLQQATRQEPQGQEH
chain 2: TGVPAVSGALRELLEACRNGDVSRVKRLVDAANVNAKDMAGRKSSPLHFAAGFGRKDVVEHLLQMGANVHARDDGGLIPLHNACSFGHAEVVSLLLCQGADPNARDNWNYTPLHEAAIKGKIDVCIVLLQHGADPNIRNTDGKSALDLADPSAKAVLTGEYKKDELLEAARSGNEEKLMALLTPLNVNCHASDGRKSTPLHLAAGYNRVRIVQLLLQHGADVHAKDKGGLVPLHNACSYGHYEVTELLLKHGACVNAMDLWQFTPLHEAASKNRVEVCSLLLSHGADPTLVNCHGKSAVDMAPTPELRERLTYEFKGHSLLQAAREADLAKVKKTLALEIINFKQPQSHETALHCAVASLHPKRKQVTELLLRKGANVNEKNKDFMTPLHVAAERAHNDVMEVLHKHGAKMNALDTLGQTALHRAALAGHLQTCRLLLSYGSDPSIISLQGFTAAQMGNEAVQQILSESTPIRTSD

Variants of: B1
Test: proteomic peptide phage display deep mutational scan (ProP-PD DMS): M13 P8 16-mer library selected against immobilised GST-tagged bait for four days (rounds), NGS of the eluted pools per day and pseudo-replica; bait immobilised on MaxiSorp plates (10 µg), library pre-cleared on GST, 2 h binding at 4 °C, five washes; one round per day, days 1-4; value from days 2 and 3

Row | Variant | screen value
1 | chain 1 Q9Y | 0.000466 average fractional NGS count over selection days 2 and 3 (reads of this peptide / all reads for the bait, averaged over …
2 | chain 1 Q9H | 0.000266 average fractional NGS count over selection days 2 and 3 (reads of this peptide / all reads for the bait, averaged over …
3 | chain 1 Q9P | 0.00216 average fractional NGS count over selection days 2 and 3 (reads of this peptide / all reads for the bait, averaged over …
4 | chain 1 Q9L | 0.000942 average fractional NGS count over selection days 2 and 3 (reads of this peptide / all reads for the bait, averaged over …
5 | chain 1 Q9A | 0.00163 average fractional NGS count over selection days 2 and 3 (reads of this peptide / all reads for the bait, averaged over …
6 | chain 1 E10Y | 0.00125 average fractional NGS count over selection days 2 and 3 (reads of this peptide / all reads for the bait, averaged over …
7 | chain 1 E10A | 0.00157 average fractional NGS count over selection days 2 and 3 (reads of this peptide / all reads for the bait, averaged over …
8 | chain 1 E10V | 0.000245 average fractional NGS count over selection days 2 and 3 (reads of this peptide / all reads for the bait, averaged over …
9 | chain 1 E10G | 0.00177 average fractional NGS count over selection days 2 and 3 (reads of this peptide / all reads for the bait, averaged over …
10 | chain 1 E10L | 0.000172 average fractional NGS count over selection days 2 and 3 (reads of this peptide / all reads for the bait, averaged over …
11 | chain 1 E10Q | 0.000624 average fractional NGS count over selection days 2 and 3 (reads of this peptide / all reads for the bait, averaged over …
12 | chain 1 E10K | 0.000435 average fractional NGS count over selection days 2 and 3 (reads of this peptide / all reads for the bait, averaged over …
13 | chain 1 E10I | 0.000303 average fractional NGS count over selection days 2 and 3 (reads of this peptide / all reads for the bait, averaged over …
14 | chain 1 E10H | 0.000153 average fractional NGS count over selection days 2 and 3 (reads of this peptide / all reads for the bait, averaged over …
15 | chain 1 E10M | 0.00083 average fractional NGS count over selection days 2 and 3 (reads of this peptide / all reads for the bait, averaged over …
16 | chain 1 E10N | 0.000822 average fractional NGS count over selection days 2 and 3 (reads of this peptide / all reads for the bait, averaged over …
17 | chain 1 E10F | 0.000339 average fractional NGS count over selection days 2 and 3 (reads of this peptide / all reads for the bait, averaged over …
18 | chain 1 Q12D | 0.000551 average fractional NGS count over selection days 2 and 3 (reads of this peptide / all reads for the bait, averaged over …
19 | chain 1 Q12F | 0.00125 average fractional NGS count over selection days 2 and 3 (reads of this peptide / all reads for the bait, averaged over …
20 | chain 1 Q12T | 0.0005 average fractional NGS count over selection days 2 and 3 (reads of this peptide / all reads for the bait, averaged over …
21 | chain 1 Q12N | 0.000885 average fractional NGS count over selection days 2 and 3 (reads of this peptide / all reads for the bait, averaged over …
22 | chain 1 Q12Y | 0.0011 average fractional NGS count over selection days 2 and 3 (reads of this peptide / all reads for the bait, averaged over …
23 | chain 1 Q12W | 0.000556 average fractional NGS count over selection days 2 and 3 (reads of this peptide / all reads for the bait, averaged over …
24 | chain 1 Q12E | 0.000439 average fractional NGS count over selection days 2 and 3 (reads of this peptide / all reads for the bait, averaged over …
25 | chain 1 Q12S | 0.000155 average fractional NGS count over selection days 2 and 3 (reads of this peptide / all reads for the bait, averaged over …

Row | Variant | screen value
26 | chain 1 Q12I | 0.00433 average fractional NGS count over selection days 2 and 3 (reads of this peptide / all reads for the bait, averaged over …
27 | chain 1 Q12G | 0.000392 average fractional NGS count over selection days 2 and 3 (reads of this peptide / all reads for the bait, averaged over …
28 | chain 1 Q12H | 0.000111 average fractional NGS count over selection days 2 and 3 (reads of this peptide / all reads for the bait, averaged over …
29 | chain 1 Q12L | 0.00049 average fractional NGS count over selection days 2 and 3 (reads of this peptide / all reads for the bait, averaged over …
30 | chain 1 Q12M | 0.00046 average fractional NGS count over selection days 2 and 3 (reads of this peptide / all reads for the bait, averaged over …
31 | chain 1 Q5F | 0.00178 average fractional NGS count over selection days 2 and 3 (reads of this peptide / all reads for the bait, averaged over …
32 | chain 1 Q5S | 0.00183 average fractional NGS count over selection days 2 and 3 (reads of this peptide / all reads for the bait, averaged over …
33 | chain 1 Q5M | 0.000456 average fractional NGS count over selection days 2 and 3 (reads of this peptide / all reads for the bait, averaged over …
34 | chain 1 Q5R | 0.000183 average fractional NGS count over selection days 2 and 3 (reads of this peptide / all reads for the bait, averaged over …
35 | chain 1 Q5P | 0.000503 average fractional NGS count over selection days 2 and 3 (reads of this peptide / all reads for the bait, averaged over …
36 | chain 1 Q5A | 0.000657 average fractional NGS count over selection days 2 and 3 (reads of this peptide / all reads for the bait, averaged over …
37 | chain 1 Q5K | 0.000455 average fractional NGS count over selection days 2 and 3 (reads of this peptide / all reads for the bait, averaged over …
38 | chain 1 Q5E | 0.000474 average fractional NGS count over selection days 2 and 3 (reads of this peptide / all reads for the bait, averaged over …
39 | chain 1 Q5L | 0.00018 average fractional NGS count over selection days 2 and 3 (reads of this peptide / all reads for the bait, averaged over …
40 | chain 1 Q5Y | 0.000959 average fractional NGS count over selection days 2 and 3 (reads of this peptide / all reads for the bait, averaged over …
41 | chain 1 Q5T | 0.00669 average fractional NGS count over selection days 2 and 3 (reads of this peptide / all reads for the bait, averaged over …
42 | chain 1 Q5V | 0.00207 average fractional NGS count over selection days 2 and 3 (reads of this peptide / all reads for the bait, averaged over …
43 | chain 1 P11T | 0.00762 average fractional NGS count over selection days 2 and 3 (reads of this peptide / all reads for the bait, averaged over …
44 | chain 1 P11A | 0.000173 average fractional NGS count over selection days 2 and 3 (reads of this peptide / all reads for the bait, averaged over …
45 | chain 1 P11V | 0.000173 average fractional NGS count over selection days 2 and 3 (reads of this peptide / all reads for the bait, averaged over …
46 | chain 1 A6H | 0.00168 average fractional NGS count over selection days 2 and 3 (reads of this peptide / all reads for the bait, averaged over …
47 | chain 1 A6E | 0.000304 average fractional NGS count over selection days 2 and 3 (reads of this peptide / all reads for the bait, averaged over …
48 | chain 1 A6W | 0.000677 average fractional NGS count over selection days 2 and 3 (reads of this peptide / all reads for the bait, averaged over …
49 | chain 1 A6S | 0.000255 average fractional NGS count over selection days 2 and 3 (reads of this peptide / all reads for the bait, averaged over …
50 | chain 1 A6I | 0.000647 average fractional NGS count over selection days 2 and 3 (reads of this peptide / all reads for the bait, averaged over …

Row | Variant | screen value
51 | chain 1 A6R | 0.000251 average fractional NGS count over selection days 2 and 3 (reads of this peptide / all reads for the bait, averaged over …
52 | chain 1 A6G | 0.000155 average fractional NGS count over selection days 2 and 3 (reads of this peptide / all reads for the bait, averaged over …
53 | chain 1 A6V | 0.0104 average fractional NGS count over selection days 2 and 3 (reads of this peptide / all reads for the bait, averaged over …
54 | chain 1 A6N | 0.000341 average fractional NGS count over selection days 2 and 3 (reads of this peptide / all reads for the bait, averaged over …
55 | chain 1 T7L | 0.000808 average fractional NGS count over selection days 2 and 3 (reads of this peptide / all reads for the bait, averaged over …
56 | chain 1 T7G | 0.00299 average fractional NGS count over selection days 2 and 3 (reads of this peptide / all reads for the bait, averaged over …
57 | chain 1 T7Y | 0.00199 average fractional NGS count over selection days 2 and 3 (reads of this peptide / all reads for the bait, averaged over …
58 | chain 1 T7E | 0.000563 average fractional NGS count over selection days 2 and 3 (reads of this peptide / all reads for the bait, averaged over …
59 | chain 1 T7V | 0.00296 average fractional NGS count over selection days 2 and 3 (reads of this peptide / all reads for the bait, averaged over …
60 | chain 1 T7Q | 0.000226 average fractional NGS count over selection days 2 and 3 (reads of this peptide / all reads for the bait, averaged over …
61 | chain 1 T7A | 0.000494 average fractional NGS count over selection days 2 and 3 (reads of this peptide / all reads for the bait, averaged over …
62 | chain 1 T7H | 0.00103 average fractional NGS count over selection days 2 and 3 (reads of this peptide / all reads for the bait, averaged over …
63 | chain 1 T7I | 0.000358 average fractional NGS count over selection days 2 and 3 (reads of this peptide / all reads for the bait, averaged over …
64 | chain 1 T7N | 0.00127 average fractional NGS count over selection days 2 and 3 (reads of this peptide / all reads for the bait, averaged over …
65 | chain 1 T7M | 0.000455 average fractional NGS count over selection days 2 and 3 (reads of this peptide / all reads for the bait, averaged over …
66 | chain 1 T7P | 0.000581 average fractional NGS count over selection days 2 and 3 (reads of this peptide / all reads for the bait, averaged over …
67 | chain 1 H16M | 0.0005 average fractional NGS count over selection days 2 and 3 (reads of this peptide / all reads for the bait, averaged over …
68 | chain 1 H16A | 0.00111 average fractional NGS count over selection days 2 and 3 (reads of this peptide / all reads for the bait, averaged over …
69 | chain 1 H16S | 0.000142 average fractional NGS count over selection days 2 and 3 (reads of this peptide / all reads for the bait, averaged over …
70 | chain 1 H16W | 0.000565 average fractional NGS count over selection days 2 and 3 (reads of this peptide / all reads for the bait, averaged over …
71 | chain 1 H16I | 0.000704 average fractional NGS count over selection days 2 and 3 (reads of this peptide / all reads for the bait, averaged over …
72 | chain 1 H16L | 0.000215 average fractional NGS count over selection days 2 and 3 (reads of this peptide / all reads for the bait, averaged over …
73 | chain 1 H16Y | 0.00033 average fractional NGS count over selection days 2 and 3 (reads of this peptide / all reads for the bait, averaged over …
74 | chain 1 H16V | 0.000284 average fractional NGS count over selection days 2 and 3 (reads of this peptide / all reads for the bait, averaged over …
75 | chain 1 H16P | 0.000313 average fractional NGS count over selection days 2 and 3 (reads of this peptide / all reads for the bait, averaged over …
